In the supplement of paper PMC9170038:

Tested on: MS2 coat protein
Experiment: apparent KD of MS2 coat protein; higher = weaker reporter binding
Details: Eterna round: R107; input ligand: arginine 13.2 mM
Procedure: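 RNA-MaP round R107: designed RNA switches with theophylline, tryptophan, arginine or FMN aptamers are transcribed on-chip within common flanks. They are titrated with SNAP-549-labelled MS2 coat protein in RNA-MaP buffer (100 mM Tris pH 7.5, 80 mM KCl, 4 mM MgCl2), without ligand or with the indicated ligand. Median apparent KD per design.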

| Sequence | apparent KD of MS2 coat protein |
| --- | --- |
| GUAAGAGUAGGAAGGAGCGCUUUACAUGAGGAUCACCCAUGUGUGCCCUCAAUUUCGGUAAAGCAGGUAGGUCGCCUAAACUUGC [Tiqurabi] | 31.2 nM |
| GUUAAUAGAAAACUAUUAACAGUGGGUGAACGAGGACCGGUACGGCCGCCACUCGGACAUGAGGAUCACCCAUGUCCAUGUGAAA [AstrosExyTryA#5] | 18.6 nM |
| AGAGUUAGACAAAAGUCUAGCUCACCAGAAGGAGCGUCCGAAAGGACAGGUAGGUCGCUGGUACGUGAGGAUCACCCACGUUCCU [ArgAS 18 #OpenEnded #AlternativeMS2] | 21.6 nM |
| GAGCUGAUGUAGAGAAUAAAUAUAAGAGAUACCAGUACAGAAAUGUACCCUUGGCAGCUCAACUUUACAUGAGGAUCACCCAUGU [Ex Theophylline A 18] | 14.1 nM |
| ACCUGCGUUUGAUUCUAUCAGACGCAGGUUCGAGGACCGGUACGGCCGCCACUCGGACAUGAGGAUCACCCAUGUUUGACAUGGG [#04 Exclusion Tryptophan A] | 134 nM |
| GUACGAGUUGACUGUGAGACUGGCGUGGAAGGAGCGCACGGAGGUGCAGGUAGGUCGCCACAUGAGGAUCACCCAUGUCGGGCCG [Qutigeveat] | 19.3 nM |
| GGACUAACUCGAAGGAGCGACACGCAGAAACUGCAAUUUCCUCCACACGAGGAUCACCCGUGUCAGGUAGGUCGCGAGUUAGUCG [ArgBX 29] | 20.8 nM |
| UUAAAUGUGACGGAUACCAGCGUGUUGUAGAACAUGAGGAUCACCCAUGUAGUGAUCGAGCGCCCUUGGCAGCUGGUAUGUUUGA [7.Y] | 102 nM |
| UGCCGAGACGUGGAUUACCCAUGUACCGAAGGAGCGCCCGAAAGGGCAGGUAGGUCGCGGAGGACAUGAGGAUCACCCAUGUCGA | 83.8 nM |
| AAUUUGUCGGGUGAUACCAGCCUCGGCGCAUCUCGCGCUGAACAUGAGGAUCACCCAUGUGGCCCUUGGCAGCACAUGACAAAUC [Veerdira] | 153 nM |
| GGACUAACCAGAAGGAGCGGCACGCAGAAACUGCUAAUUCCUCCGCACGAGGAUCACCCGUGUCAGGUAGGUCGCUGGUUAGUCG [ArgBX 28] | 14.9 nM |
| ACAUCCAGAUUAAUCGUGGGCAUACUCGAUACCAGUAUUUUAAUCUACCCUUGGCAGCGACAUGAGGAUCACCCAUGUGCGAUGA [XTheo A #11] | 11.7 nM |
| UAAUCGUAGGCGGCCGCCACUUUUUGGUAGUGUCCAUUGUACACUCACAUGAGGAUCACCCAUGUAAGGACCGGGCCCGCAUCAG [theeternabot_exclusion_MS2_Trp_B_32] | 17.9 nM |
| UCCACAUGAGGAUCACCCAUGUAAUCAGAUACCAGUGACGAAAGUCACCCUUGGCAGCUGAUUACUUUAGUUCGAGGGUGUUUGA [EThA NP+V+V2 #4 Same Structure] | 84.5 nM |
| CCUAUCCAGUCGGCCGCCACUGACCAUUUGGAACAGUGGGUGAAUACAUGAGGAUCACCCAUGUACAGGACCGGGACUGUAUAGG [Ex Tryptophan B 21] | 14.4 nM |
| AGCACAUGAGGAUCACCCAUGUGAGGUGAUACCAGUGAGAAGAAGCACCCUUGGCAGCACUUGGGUACAUGAGGAUCACCCAUGU [Exclusion Theophylline A GF9] | 47.4 nM |
| GGACUAACCAGAAGGAGCGACACGCAGAAACUGCAAUUUCCUCCACACGAGGAUCACCCGUGUCAGGUAGGUCGCUGGUUAGUCG | 28.3 nM |
| GGGCGAGUGGCGCGGCGUGCUCCGCUCCGUCGAGGACCGGUACGGCCGCCACUCGACAUGAGGAUCACCCAUGUGCGAGCUCGCG [#1 Exclusion - Tryptophan A Attempt #12 (HarryS)] | 24.7 nM |
| UAAUAAAUAAAUCCAAGGUGAAGGUCAGAUACCAGCCAGAUAACUGGCCCUUGGCAGCUGAAUAAACUUGAGGAACACCCAAGUA [TheoAS 28 #OpenEnded #MS2Late #AlternativeMS2] | 16.7 nM |
| UAGCGAUUUGGUGAUACCAGACGUGUGCAGUCCUCAGACAUGAGGAUCACCCAUGUAUGCGUCCCUUGGCAGCGCUAUGAGGACA [Theo B Ex t6] | 66.5 nM |

Same assay, conditions: Eterna round: R107; input ligand: none

| Sequence | apparent KD of MS2 coat protein |
| --- | --- |
| GUAAGAGUAGGAAGGAGCGCUUUACAUGAGGAUCACCCAUGUGUGCCCUCAAUUUCGGUAAAGCAGGUAGGUCGCCUAAACUUGC [Tiqurabi] | 34.5 nM |
| GUUAAUAGAAAACUAUUAACAGUGGGUGAACGAGGACCGGUACGGCCGCCACUCGGACAUGAGGAUCACCCAUGUCCAUGUGAAA [AstrosExyTryA#5] | 16.9 nM |
| AGAGUUAGACAAAAGUCUAGCUCACCAGAAGGAGCGUCCGAAAGGACAGGUAGGUCGCUGGUACGUGAGGAUCACCCACGUUCCU [ArgAS 18 #OpenEnded #AlternativeMS2] | 24.6 nM |
| GUACGAGUUGACUGUGAGACUGGCGUGGAAGGAGCGCACGGAGGUGCAGGUAGGUCGCCACAUGAGGAUCACCCAUGUCGGGCCG [Qutigeveat] | 26.4 nM |
| GGACUAACUCGAAGGAGCGACACGCAGAAACUGCAAUUUCCUCCACACGAGGAUCACCCGUGUCAGGUAGGUCGCGAGUUAGUCG [ArgBX 29] | 21.8 nM |
| UGCCGAGACGUGGAUUACCCAUGUACCGAAGGAGCGCCCGAAAGGGCAGGUAGGUCGCGGAGGACAUGAGGAUCACCCAUGUCGA | 34.5 nM |
| GGACUAACCAGAAGGAGCGGCACGCAGAAACUGCUAAUUCCUCCGCACGAGGAUCACCCGUGUCAGGUAGGUCGCUGGUUAGUCG [ArgBX 28] | 11.3 nM |
| CCUAUCCAGUCGGCCGCCACUGACCAUUUGGAACAGUGGGUGAAUACAUGAGGAUCACCCAUGUACAGGACCGGGACUGUAUAGG [Ex Tryptophan B 21] | 11.2 nM |
| GGACUAACCAGAAGGAGCGACACGCAGAAACUGCAAUUUCCUCCACACGAGGAUCACCCGUGUCAGGUAGGUCGCUGGUUAGUCG | 25.4 nM |
| GGGCGAGUGGCGCGGCGUGCUCCGCUCCGUCGAGGACCGGUACGGCCGCCACUCGACAUGAGGAUCACCCAUGUGCGAGCUCGCG [#1 Exclusion - Tryptophan A Attempt #12 (HarryS)] | 52.5 nM |
| UAAUAAAUAAAUCCAAGGUGAAGGUCAGAUACCAGCCAGAUAACUGGCCCUUGGCAGCUGAAUAAACUUGAGGAACACCCAAGUA [TheoAS 28 #OpenEnded #MS2Late #AlternativeMS2] | 23 nM |
| UAGCGAUUUGGUGAUACCAGACGUGUGCAGUCCUCAGACAUGAGGAUCACCCAUGUAUGCGUCCCUUGGCAGCGCUAUGAGGACA [Theo B Ex t6] | 48.4 nM |

Same assay, conditions: Eterna round: R107; input ligand: theophylline 20 uM

| Sequence | apparent KD of MS2 coat protein |
| --- | --- |
| GUAAGAGUAGGAAGGAGCGCUUUACAUGAGGAUCACCCAUGUGUGCCCUCAAUUUCGGUAAAGCAGGUAGGUCGCCUAAACUUGC [Tiqurabi] | 175 nM |
| GUUAAUAGAAAACUAUUAACAGUGGGUGAACGAGGACCGGUACGGCCGCCACUCGGACAUGAGGAUCACCCAUGUCCAUGUGAAA [AstrosExyTryA#5] | 16.9 nM |
| AGAGUUAGACAAAAGUCUAGCUCACCAGAAGGAGCGUCCGAAAGGACAGGUAGGUCGCUGGUACGUGAGGAUCACCCACGUUCCU [ArgAS 18 #OpenEnded #AlternativeMS2] | 26.3 nM |
| GAGCUGAUGUAGAGAAUAAAUAUAAGAGAUACCAGUACAGAAAUGUACCCUUGGCAGCUCAACUUUACAUGAGGAUCACCCAUGU [Ex Theophylline A 18] | 16.7 nM |
| ACCUGCGUUUGAUUCUAUCAGACGCAGGUUCGAGGACCGGUACGGCCGCCACUCGGACAUGAGGAUCACCCAUGUUUGACAUGGG [#04 Exclusion Tryptophan A] | 281 nM |
| GUACGAGUUGACUGUGAGACUGGCGUGGAAGGAGCGCACGGAGGUGCAGGUAGGUCGCCACAUGAGGAUCACCCAUGUCGGGCCG [Qutigeveat] | 31.6 nM |
| GGACUAACUCGAAGGAGCGACACGCAGAAACUGCAAUUUCCUCCACACGAGGAUCACCCGUGUCAGGUAGGUCGCGAGUUAGUCG [ArgBX 29] | 26.3 nM |
| UUAAAUGUGACGGAUACCAGCGUGUUGUAGAACAUGAGGAUCACCCAUGUAGUGAUCGAGCGCCCUUGGCAGCUGGUAUGUUUGA [7.Y] | 365 nM |
| UGCCGAGACGUGGAUUACCCAUGUACCGAAGGAGCGCCCGAAAGGGCAGGUAGGUCGCGGAGGACAUGAGGAUCACCCAUGUCGA | 127 nM |
| AAUUUGUCGGGUGAUACCAGCCUCGGCGCAUCUCGCGCUGAACAUGAGGAUCACCCAUGUGGCCCUUGGCAGCACAUGACAAAUC [Veerdira] | 587 nM |
| GGACUAACCAGAAGGAGCGGCACGCAGAAACUGCUAAUUCCUCCGCACGAGGAUCACCCGUGUCAGGUAGGUCGCUGGUUAGUCG [ArgBX 28] | 13.8 nM |
| ACAUCCAGAUUAAUCGUGGGCAUACUCGAUACCAGUAUUUUAAUCUACCCUUGGCAGCGACAUGAGGAUCACCCAUGUGCGAUGA [XTheo A #11] | 13.9 nM |
